In US20060251661A1 one finds % of B3Z cells activated (lacZ reporter, flow cytometry); lymph node cells of mice with B16/OVA tumors injected with α-gal glycolipids and % of B3Z cells activated (lacZ reporter, flow cytometry); lymph node cells of mice with PBS treated B16/OVA tumors data, which are given here for one substance.

For the assay, the target named is OVA peptide 257-264 (SIINFEKL) presented on MHC class I molecule K^b of antigen presenting cells (mouse; chicken). As to the kind of experiment: cell-based or functional assay.

“α-β T cell receptor (TCR) of B3Z CD8+ T hybridoma cells, specific for OVA257-264 presented on K^b”: the % of B3Z cells activated (lacZ reporter, flow cytometry); lymph node cells of mice with B16/OVA tumors injected with α-gal glycolipids lay within 1.07 to 3.66% and the % of B3Z cells activated (lacZ reporter, flow cytometry); lymph node cells of mice with PBS treated B16/OVA tumors fell in the range of 0 to 0.14%.
